Laboratory results from patent US20040037775A1 (published 2004).
No end group written: not given here. *: point of attachment. MTX = methotrexate, its gamma-carboxylic acid amide-linked to the peptide N-terminus, CN(Cc1cnc2nc(N)nc(N)c2n1)c1ccc(C(=O)N[C@@H](CCC(=O)*)C(=O)O)cc1

B1: MTX-cIBR conjugate (methotrexate-cyclo-Leu Pro Arg Gly Gly Ser Val Leu Val Thr) (peptide)
peptide: {MTX}-LPRGGSVLVT
modifications: also: cyclic peptide, ring closure not given here
B2: MTX-cIBL conjugate (peptide)
peptide: {MTX}-QTSVSPSKVI
modifications: also: cyclic peptide, ring not given here
B3: MTX-VILPRG (peptide)
peptide: {MTX}-VILPRG-NH2
B4: MTX-PRGGSV (peptide)
peptide: {MTX}-PRGGSV-NH2

Each binder was assayed against dihydrofolate reductase enzyme (DHFR) (assay: cell-based or functional assay).

| Binder | Km relative to MTX (Dixon plot, DHFR inhibition assay) [fold] |
| --- | --- |
| B1 | ~15 |
| B2 | ~4 |

What follows are binders tested against LFA-1 on mouse L1210 T-cells (mouse, UniProt P24063 24-1162; P11835 24-771) (assay: cell-based or functional assay).
Chain of LFA-1 on mouse L1210 T-cells (P24063 24-1162, chain 1 of 2): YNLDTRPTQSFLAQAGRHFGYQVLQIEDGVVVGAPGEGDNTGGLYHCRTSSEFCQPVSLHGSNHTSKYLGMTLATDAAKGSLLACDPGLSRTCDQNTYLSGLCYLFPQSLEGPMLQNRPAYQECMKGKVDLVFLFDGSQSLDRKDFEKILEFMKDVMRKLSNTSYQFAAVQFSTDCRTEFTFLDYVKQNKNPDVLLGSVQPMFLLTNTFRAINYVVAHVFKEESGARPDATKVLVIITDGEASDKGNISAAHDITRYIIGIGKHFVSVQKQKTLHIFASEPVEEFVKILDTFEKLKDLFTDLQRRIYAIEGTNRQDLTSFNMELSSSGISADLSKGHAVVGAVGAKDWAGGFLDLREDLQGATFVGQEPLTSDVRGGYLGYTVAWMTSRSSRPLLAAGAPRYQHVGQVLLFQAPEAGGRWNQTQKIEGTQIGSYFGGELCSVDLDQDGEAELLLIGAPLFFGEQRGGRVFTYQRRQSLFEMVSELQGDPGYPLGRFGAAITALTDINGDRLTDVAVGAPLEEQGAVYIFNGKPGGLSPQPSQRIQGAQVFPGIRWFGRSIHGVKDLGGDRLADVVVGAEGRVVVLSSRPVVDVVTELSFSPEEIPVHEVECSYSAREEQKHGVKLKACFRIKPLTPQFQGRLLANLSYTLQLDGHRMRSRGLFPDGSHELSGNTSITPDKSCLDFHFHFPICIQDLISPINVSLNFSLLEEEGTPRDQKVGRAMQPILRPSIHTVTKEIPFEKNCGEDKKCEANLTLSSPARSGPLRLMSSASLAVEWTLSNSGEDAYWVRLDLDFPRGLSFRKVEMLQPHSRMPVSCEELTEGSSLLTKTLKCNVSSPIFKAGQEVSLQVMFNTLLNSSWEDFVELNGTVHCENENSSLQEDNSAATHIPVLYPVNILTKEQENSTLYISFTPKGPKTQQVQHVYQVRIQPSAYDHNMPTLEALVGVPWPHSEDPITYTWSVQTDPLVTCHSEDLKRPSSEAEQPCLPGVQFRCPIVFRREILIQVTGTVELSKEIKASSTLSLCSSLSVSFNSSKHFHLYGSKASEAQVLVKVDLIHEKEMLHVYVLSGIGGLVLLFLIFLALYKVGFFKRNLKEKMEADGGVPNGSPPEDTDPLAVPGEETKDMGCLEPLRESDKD
Chain of LFA-1 on mouse L1210 T-cells (P11835 24-771, chain 2 of 2): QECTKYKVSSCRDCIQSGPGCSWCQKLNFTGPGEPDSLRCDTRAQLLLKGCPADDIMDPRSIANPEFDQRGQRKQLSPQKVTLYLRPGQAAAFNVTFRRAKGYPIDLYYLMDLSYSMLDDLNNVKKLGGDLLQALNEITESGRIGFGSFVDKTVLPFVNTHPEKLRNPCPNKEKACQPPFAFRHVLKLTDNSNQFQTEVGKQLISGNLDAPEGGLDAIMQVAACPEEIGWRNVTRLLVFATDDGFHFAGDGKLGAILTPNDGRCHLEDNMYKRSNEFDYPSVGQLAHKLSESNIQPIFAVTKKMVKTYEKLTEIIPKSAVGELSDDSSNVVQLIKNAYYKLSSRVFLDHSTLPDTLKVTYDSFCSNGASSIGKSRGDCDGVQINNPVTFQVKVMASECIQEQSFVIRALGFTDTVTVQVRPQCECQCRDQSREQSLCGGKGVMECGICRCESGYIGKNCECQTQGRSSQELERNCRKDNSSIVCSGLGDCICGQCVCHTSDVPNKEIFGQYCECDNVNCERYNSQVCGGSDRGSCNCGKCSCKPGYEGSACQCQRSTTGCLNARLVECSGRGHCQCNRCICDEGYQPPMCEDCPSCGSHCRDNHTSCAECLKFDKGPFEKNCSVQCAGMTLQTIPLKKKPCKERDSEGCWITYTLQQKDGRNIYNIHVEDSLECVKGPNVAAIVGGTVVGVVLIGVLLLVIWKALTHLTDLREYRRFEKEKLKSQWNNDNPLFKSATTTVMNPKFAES

| Binder | IC50 in micromolar, growth inhibition, L1210 mouse leukemia cells [µM] |
| --- | --- |
| B1 | 5.5 |
| B2 | 9.14 |
| B3 | 0.7 |
| B4 | 1.6 |

What follows are binders tested against LFA-1 receptor on human Molt-3 T-cells (human, UniProt P20701 26-1170; P05107 23-769) (assay: cell-based or functional assay).
Chain of LFA-1 receptor on human Molt-3 T-cells (P20701 26-1170, chain 1 of 2): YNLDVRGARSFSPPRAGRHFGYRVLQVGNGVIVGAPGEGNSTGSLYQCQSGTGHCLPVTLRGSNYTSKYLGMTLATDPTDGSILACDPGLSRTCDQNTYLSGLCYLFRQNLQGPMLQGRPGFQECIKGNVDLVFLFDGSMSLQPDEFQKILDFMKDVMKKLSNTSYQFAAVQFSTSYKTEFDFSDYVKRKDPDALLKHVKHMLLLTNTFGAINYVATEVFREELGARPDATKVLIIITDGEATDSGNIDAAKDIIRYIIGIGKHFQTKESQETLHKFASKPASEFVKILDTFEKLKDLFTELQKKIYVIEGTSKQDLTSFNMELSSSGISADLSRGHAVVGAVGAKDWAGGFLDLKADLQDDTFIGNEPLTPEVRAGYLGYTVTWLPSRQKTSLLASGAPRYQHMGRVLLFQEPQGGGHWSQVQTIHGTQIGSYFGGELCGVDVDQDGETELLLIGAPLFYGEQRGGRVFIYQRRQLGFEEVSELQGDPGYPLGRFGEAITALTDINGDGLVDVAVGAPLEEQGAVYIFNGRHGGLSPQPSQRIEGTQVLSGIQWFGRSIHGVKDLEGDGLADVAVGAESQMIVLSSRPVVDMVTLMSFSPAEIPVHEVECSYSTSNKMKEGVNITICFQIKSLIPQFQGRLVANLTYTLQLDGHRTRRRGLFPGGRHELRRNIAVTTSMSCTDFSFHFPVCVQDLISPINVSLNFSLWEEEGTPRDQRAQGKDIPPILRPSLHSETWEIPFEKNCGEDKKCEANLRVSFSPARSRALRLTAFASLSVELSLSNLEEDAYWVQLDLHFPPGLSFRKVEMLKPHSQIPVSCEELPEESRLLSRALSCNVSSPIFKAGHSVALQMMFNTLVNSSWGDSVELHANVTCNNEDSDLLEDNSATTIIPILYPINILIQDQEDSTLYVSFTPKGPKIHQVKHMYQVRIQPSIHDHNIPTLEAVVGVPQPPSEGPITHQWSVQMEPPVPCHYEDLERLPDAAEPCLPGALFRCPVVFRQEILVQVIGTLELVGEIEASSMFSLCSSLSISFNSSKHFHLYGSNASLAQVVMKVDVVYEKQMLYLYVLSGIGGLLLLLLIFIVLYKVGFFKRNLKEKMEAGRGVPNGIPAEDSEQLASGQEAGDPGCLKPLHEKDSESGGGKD
Chain of LFA-1 receptor on human Molt-3 T-cells (P05107 23-769, chain 2 of 2): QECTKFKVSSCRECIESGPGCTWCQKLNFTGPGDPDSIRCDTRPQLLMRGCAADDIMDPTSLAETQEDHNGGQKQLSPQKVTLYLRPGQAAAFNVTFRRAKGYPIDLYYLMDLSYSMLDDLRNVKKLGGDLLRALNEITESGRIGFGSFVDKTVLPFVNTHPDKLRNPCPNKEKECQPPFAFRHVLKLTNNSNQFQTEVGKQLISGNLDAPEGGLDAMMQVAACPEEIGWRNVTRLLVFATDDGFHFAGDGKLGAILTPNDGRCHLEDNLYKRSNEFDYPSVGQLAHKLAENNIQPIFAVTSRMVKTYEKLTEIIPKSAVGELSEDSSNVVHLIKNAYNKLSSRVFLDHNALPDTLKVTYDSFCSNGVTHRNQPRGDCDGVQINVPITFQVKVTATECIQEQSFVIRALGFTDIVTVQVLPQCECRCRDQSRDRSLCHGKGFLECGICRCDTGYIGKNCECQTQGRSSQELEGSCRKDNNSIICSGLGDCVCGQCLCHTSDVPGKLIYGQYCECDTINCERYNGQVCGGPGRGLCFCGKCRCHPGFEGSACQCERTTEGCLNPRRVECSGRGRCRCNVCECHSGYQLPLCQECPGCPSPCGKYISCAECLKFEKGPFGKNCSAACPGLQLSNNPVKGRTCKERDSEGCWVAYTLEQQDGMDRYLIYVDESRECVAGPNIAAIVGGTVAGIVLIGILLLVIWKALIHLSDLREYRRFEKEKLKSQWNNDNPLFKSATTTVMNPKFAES

| Binder | IC50 in micromolar, cytotoxicity, Molt-3 T-cells [µM] |
| --- | --- |
| B1 | 2.75 |
| B2 | 2.68 |
| B3 | 9.12 |
| B4 | 5.13 |
